# In US20080119384A1 (Janssen / Centocor, published 2008):
# Non-standard residues stand in square brackets, D forms with d. No end group written: not given here. MPEG = methoxypoly(ethylene glycol), ~20,000 Da; 2Nal = N[C@@H](Cc1ccc2ccccc2c1)C(=O)O; Sar = CNCC(=O)O
# Target: T1, human TPO receptor, c-mpl (hTPOr) (human, UniProt P40238 26-635)
# T1 sequence (looked up): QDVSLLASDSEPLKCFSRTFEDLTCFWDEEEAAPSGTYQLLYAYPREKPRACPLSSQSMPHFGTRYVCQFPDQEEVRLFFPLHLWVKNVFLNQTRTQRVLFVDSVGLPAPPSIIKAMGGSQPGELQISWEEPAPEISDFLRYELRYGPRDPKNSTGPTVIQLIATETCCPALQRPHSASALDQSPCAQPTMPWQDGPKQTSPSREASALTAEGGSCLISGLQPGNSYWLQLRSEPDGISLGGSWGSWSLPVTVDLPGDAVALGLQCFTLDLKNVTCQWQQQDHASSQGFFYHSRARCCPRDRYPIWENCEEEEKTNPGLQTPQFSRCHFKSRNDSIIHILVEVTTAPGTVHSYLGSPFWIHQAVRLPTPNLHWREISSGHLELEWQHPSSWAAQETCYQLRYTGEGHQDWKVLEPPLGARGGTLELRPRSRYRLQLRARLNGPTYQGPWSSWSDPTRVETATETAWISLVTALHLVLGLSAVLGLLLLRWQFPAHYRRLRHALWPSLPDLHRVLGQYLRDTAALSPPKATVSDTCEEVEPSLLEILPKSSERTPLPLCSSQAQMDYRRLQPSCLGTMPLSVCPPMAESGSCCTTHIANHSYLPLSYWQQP
# Assay: cell-based or functional assay
binder,measurement,value
"{MPEG}-IEGPTLRQ[2Nal]LAAR[Sar]K[Sar]RAAL[2Nal]QRLTPGEI (not fully specified (C-terminus); printed as (MPEG-Ile-Glu-Gly-Pro-Thr-Leu-Arg-Gln-(2-Nal)-Leu-Ala-Ala-Arg-(Sar))2-Lys-NH2; also: branched dimer: two 14-mers joined at their C-termini to Lys alpha and epsilon amines, residues 16-29 written C→N, Ile29 is the second N-terminus bearing MPEG, Lys C-terminal amide (lysinamide)) [PEGylated TPO Compound No. 1]","EC50, luciferase reporter (fos promoter) in Baf/3 cells expressing human TPO-R",~5 pM
